In paper PMC9804225 one finds Kd data, which are given here for one substance.

Assay [1] has as its target recombinantly expressed GFP Nb. The experiment in a line: BLI; Nbs immobilised by their C-terminal His-tag on Ni-NTA biosensor tips; untagged GFP as analyte at 1 nM to 100 nM. (BLI is a label-free optical method that tracks binding on a fibre tip over time.)
For assay [2], the target named is synthetic GFP Nb_(1–123)‐linker‐PA (5), folded. The assay is described as above.

pKd: −log10 of the molar value.

With “untagged GFP (from UniProt P42212 1-238) (natural protein)”, the pKd in assay [1] and in assay [2] was 8.95 throughout.

One may read the pKd as the Kd on a negative log10 scale, so that one unit is a factor of ten.
